Measurements reported in US20060286112A1 (published 2006).
Residue numbers refer to the chain shown, from its start.

B1: 3.9 (antibody, V domains shown)
VH: QVQLVESGGGVVQPGRSLRLSCAASGFTFSSYGMHWVRQAPGKGLEWVAVIWYDGSNKYYADSVKGRFTISRDNSKNTLYLQMNSLRAEDTAVYYCARDNGAMVRGVIISYYYGMDVWGQGTTVTVSS
VL: SYDLTQPSSVSVSPGQTASIACSGDRLGNKYACWYQQKPGQSPVLVIYKDSKRPSGIPERFSGSNSGNTATLTISGTQAMDEADYYCQAWDSSTVVFGGGTKLTVL
notes: human IgG2 or IgG4
B2: 3.40 (antibody, V domains shown)
VH: QVQLVESGGGVVQPGRSLRLSCAASGFTFSTYGMHWVRQAPGKGLEWVAVIWYDGSKKYYADSVKGRFAISRDNSKNTLYLQMNSLRAEDTAVYYCARDHTMVRGVINSYYYGMAVWGQGTTVTVSS
VL: B1 VL with D3E, S8P, A21T, P39T, K49Q
notes: human IgG2 or IgG4
B3: 7.11 (antibody, V domains shown)
VH: QVQLQESGPGLVKPPETLSLTCTVSGGSISSHYWSWIRQPAGKGLEWIGRIYTSGSTNYNPPLKSRVTMSVDTSKNQFSLKLSSVTAADTAVYYCAREGYDFWSGYYNYYYGMDVWGQGTTVTVS
VL: EIVLTQSPGTLSLSPGERATLSCRASQSVISSYLAWYQQKPGQAPRLLIYGASSRATGIPDRFSGSGSGTDFTLTISRLEPEDFAVYYCQQYGSAFTFGGGTKVEIK
B4: 10.1 (antibody, V domains shown)
VH: QVQLQQSGPGLVKPSETLSLTCTVSGASISSYYWSWIRQPAGKGLEWIGRIYASGSTNYNPSLKSRVTMSVDTSKSQFSLNLSSVTAADTAVYYCAREGWERLQDYYYYGLDVWGQGTTVTVSS
VL: EIVLTQSPGTLSLSPGERATLSCRASQSVSRNYLAWNQQKPGQAPRLLIYGASSRATGIPDRFSGSGSGTDFTLTISRLEPEDFAVYYCQQYGSSPLTFGGGTKVEIK
B5: 6.18 (antibody, V domains shown)
VH: EVQLVQSGAEVKKPGESLRISCKGSGYSVTSYWIGWVRQMPGKGLEWMGIIYPGDSDTRYSPSFQGQVTISADKSISTAYLQWSSLKASDTAMYYCARLQGDCSGGTCYGHFDYWGQGTLVTVS
VL: EIVLTQSPGTLSLSPGERATLSCRASQSVSSSYLAWYQQKPAQAPRLLIYVASRRATGIPDRFSGSGSGTDFTLTISRLEPEDFAVYYCQQYGTSSWTFGQGTTVEIK
notes: human IgG2 or IgG4
B6: 1.7 (antibody, V domains shown)
VH: QVQLQESGPGLVKPSQTLSLTCTVSGGSISRGNYYWSWIRQHPGKGLEWIGYIFYSGSTYYNPSLKSRVTISVDTSKNQFSLKLSSVTAADTAVYYCARDGYGMDVWGQGTTVTVSS
VL: B4 VL with R31S, N32S, A35V, N37Y, I49L, G51D, S94N
notes: human IgG2 or IgG4; also called antibody 1.7
B7: 3.2 (antibody, V domains shown)
VH: QVQLVESGGGVVQPGRSLRLSCAASGFTFSSYGIHWVRQAPGKGLEWVAVIWYDGSDIYYADSVKGRFTISRDNSKNTLYLQMNSLRAEDTALYYCARESSGWTFDYWGQGTLVTVSS
VL: QSALTQPASVSGSPGQSITISCTGTSSDVGGYNYVSWYQQHPGKAPKLMIYEVSNRPSGISNRFSGSKSGNTASLTISGLQAEDEADYYCSSYTSSSTIIFGGGTKLTVL
notes: human IgG2 or IgG4
B8: 7.38 (antibody, V domains shown)
VH: B3 VH with P15S, I29F, H32Y, N58Y, P62S, S83N, S104N, G105D
VL: B3 VL with I30S, S32R
notes: human IgG2 or IgG4

Biological target: T1, human VLA-1 (alpha 1/beta 1, CD49a/CD29) on IL-2 stimulated human PBMC / T cells (human, UniProt P56199 29-1179; P05556 21-798)
Assay: cell-based or functional assay

Question: B1 was tested. Which “T cell adhesion to immobilized collagen IV, relative estimated IC50” value (“T cell adhesion … relative estimated IC50” below) did it give?
Answer: > 5 nM

Question: Which “T cell adhesion … relative estimated IC50” value does the source give for B2 here?
Answer: > 5 nM

Question: For B3, which “T cell adhesion … relative estimated IC50” value is on record?
Answer: > 5 nM

Question: Which “T cell adhesion … relative estimated IC50” value does the source give for B4 here?
Answer: > 5 nM

Biological target: T2, human VLA-1 α1 subunit (CD49a), full-length, on transfected CHO cells (human, UniProt P56199 29-1179)
Assay: cell-based or functional assay

Question: B5 was tested. Which “relative inhibition at an optimal concentration, CHO-VLA-1 adhesion to collagen IV” value did it give?
Answer: > 80%

Question: Which “relative inhibition at an optimal concentration, CHO-VLA-1 adhesion to collagen IV” value does the source give for B1 here?
Answer: > 80%

Biological target: T2, human VLA-1 α1 subunit (CD49a), …
Assay: cell-based or functional assay
Remark: another data set of the same source

Question: How did the “IC50, adhesion of CHO-VLA-1 cells to collagen IV” value (from here on “IC50, adhesion of CHO-VLA-1 cells”) turn out when B5 was run?
Answer: 0.19 nM

Question: With B1 as the binder, how does the “IC50, adhesion of CHO-VLA-1 cells” value read?
Answer: 0.38 nM

Question: Which “IC50, adhesion of CHO-VLA-1 cells” value does the source give for B2 here?
Answer: 1.3 nM

Question: B4 was tested. Which “IC50, adhesion of CHO-VLA-1 cells” value did it give?
Answer: 1 nM

Biological target: T1, human VLA-1 (alpha 1/beta 1, …)
Assay: cell-based or functional assay
Remark: another data set of the same source

Question: B5 was tested. Which “% adhesion of T cells to collagen IV vs no antibody, 0.5 nM mAb, no PMA” value (“% adhesion of T cells … 0.5 nM mAb, no PMA” below) did it give?
Answer: 85%

Question: And the “% adhesion of T cells to collagen IV vs no antibody, 5 nM mAb, no PMA” value (from here on “% adhesion … vs no antibody, 5 nM mAb, no PMA”)?
Answer: 19.7%

Question: With B1 as the binder, how does the “% adhesion of T cells … 0.5 nM mAb, no PMA” value read?
Answer: 91.5%

Question: And the “% adhesion … vs no antibody, 5 nM mAb, no PMA” value?
Answer: 68%

Question: With B4 as the binder, how does the “% adhesion of T cells … 0.5 nM mAb, no PMA” value read?
Answer: 101%

Question: And the “% adhesion … vs no antibody, 5 nM mAb, no PMA” value?
Answer: 76.6%

Question: B6 was tested. Which “% adhesion of T cells … 0.5 nM mAb, no PMA” value did it give?
Answer: 36.9%

Biological target: T1, human VLA-1 (alpha 1/beta 1, …)
Assay: cell-based or functional assay
Remark: another data set of the same source

Question: How did the “% adhesion of IL-2 activated T cells to collagen IV vs no antibody, 10 µg/ml, +PMA” value (from here on “% adhesion … vs no antibody, 10 µg/ml, +PMA”) turn out when B5 was run?
Answer: 31.2%

Question: What about the “% adhesion of IL-2 activated T cells to collagen IV vs no antibody, 10 µg/ml, -PMA” value (from here on “% adhesion … vs no antibody, 10 µg/ml, -PMA”) of the same binder?
Answer: 58.5%

Question: With B1 as the binder, how does the “% adhesion … vs no antibody, 10 µg/ml, +PMA” value read?
Answer: 24.6%

Question: And the “% adhesion … vs no antibody, 10 µg/ml, -PMA” value?
Answer: 45.8%

Question: With B4 as the binder, how does the “% adhesion … vs no antibody, 10 µg/ml, +PMA” value read?
Answer: 38.4%

Question: And the “% adhesion … vs no antibody, 10 µg/ml, -PMA” value?
Answer: 40.9%

Question: What does the source list for B6?
Answer: % adhesion of IL-2 activated T cells to collagen IV vs no antibody, 10 µg/ml, +PMA: 33.8%; % adhesion of IL-2 activated T cells to collagen IV vs no antibody, 10 µg/ml, -PMA: 57%

Biological target: T1, human VLA-1 (alpha 1/beta 1, …)
Assay: cell-based or functional assay
Remark: another data set of the same source

Question: B5 was tested. Which “% adhesion of T cells to collagen IV vs no antibody, 0.5 nM mAb, 10 ng/ml PMA” value did it give?
Answer: 98.4%

Question: What about the “% adhesion of T cells to collagen IV vs no antibody, 5 nM mAb, 10 ng/ml PMA” value of the same binder?
Answer: 55.5%

Question: With B1 as the binder, how does the “% adhesion of T cells to collagen IV vs no antibody, 0.5 nM mAb, 10 ng/ml PMA” value read?
Answer: 91.9%

Question: What about the “% adhesion of T cells to collagen IV vs no antibody, 5 nM mAb, 10 ng/ml PMA” value of the same binder?
Answer: 99.6%

Question: How did the “% adhesion of T cells to collagen IV vs no antibody, 0.5 nM mAb, 10 ng/ml PMA” value turn out when B4 was run?
Answer: 96.7%

Question: And the “% adhesion of T cells to collagen IV vs no antibody, 5 nM mAb, 10 ng/ml PMA” value?
Answer: 86.8%

Question: Which “% adhesion of T cells to collagen IV vs no antibody, 0.5 nM mAb, 10 ng/ml PMA” value does the source give for B6 here?
Answer: 74.5%

Question: And the “% adhesion of T cells to collagen IV vs no antibody, 5 nM mAb, 10 ng/ml PMA” value?
Answer: 44.1%

Biological target: T3, mouse VLA-1 on mouse splenocytes (mouse, UniProt Q3V3R4 29-1179; P09055 21-798)
T3 construct: whole, on cells; native protein on primary cells
Assay: FACS on mouse splenocytes

Question: Does B6 bind?
Answer: binds

Biological target: T1, human VLA-1 (alpha 1/beta 1, …)
Assay: FACS on IL-2 stimulated human PBMC

Question: Does B7 bind?
Answer: binds

Biological target: T4, human CD49a I domain I11F (human, UniProt P56199 151-364, I11F)
T4 construct: domain: I domain; not shown: myc and His tags
Assay: ELISA on secreted mutant I domain

Question: Does B5 bind?
Answer: binds

Question: Does B1 bind?
Answer: binds

Question: Does B2 bind?
Answer: binds

Biological target: T5, human CD49a I domain K142Q (human, UniProt P56199 151-364, K142Q)
T5 construct: domain: I domain; text prints KI42Q once; not shown: myc and His tags
Assay: ELISA on secreted mutant I domain

Question: Does B5 bind?
Answer: binds

Question: Does B1 bind?
Answer: binds

Question: Does B2 bind?
Answer: binds

Biological target: T6, human CD49a I domain E48K (human, UniProt P56199 151-364, E48K)
T6 construct: domain: I domain; not shown: myc and His tags
Assay: ELISA on secreted mutant I domain

Question: Does B5 bind?
Answer: binds

Question: Does B1 bind?
Answer: no binding

Question: Does B2 bind?
Answer: no binding

Biological target: T7, human CD49a I domain with residues 91-96 VQRGGR replaced by mouse GRRGGL (human, UniProt P56199 151-364, V91G; Q92R; R96L)
T7 construct: domain: I domain; also called V91G, Q92R, R96L; not shown: myc and His tags
Assay: ELISA on secreted mutant I domain

Question: Does B5 bind?
Answer: no binding

Question: Does B1 bind?
Answer: binds

Question: Does B2 bind?
Answer: binds

Biological target: T8, human CD49a I domain E66A (human, UniProt P56199 151-364, E66A)
T8 construct: domain: I domain; not shown: myc and His tags
Assay: ELISA on secreted mutant I domain

Question: Does B5 bind?
Answer: binds

Question: Does B1 bind?
Answer: binds

Question: Does B2 bind?
Answer: binds

Biological target: T9, human CD49a I domain T204A (human, UniProt P56199 151-364, T204A)
T9 construct: domain: I domain; not shown: myc and His tags
Assay: ELISA on secreted mutant I domain

Question: Does B5 bind?
Answer: binds

Question: Does B1 bind?
Answer: binds

Question: Does B2 bind?
Answer: binds

Biological target: T10, human CD49a I domain S162H (human, UniProt P56199 151-364, S162H)
T10 construct: domain: I domain; not shown: myc and His tags
Assay: ELISA on secreted mutant I domain

Question: Does B5 bind?
Answer: no binding

Question: Does B1 bind?
Answer: binds

Question: Does B2 bind?
Answer: binds

Biological target: T11, human CD49a I domain K88N (human, UniProt P56199 151-364, K88N)
T11 construct: domain: I domain; not shown: myc and His tags
Assay: ELISA on secreted mutant I domain

Question: Does B5 bind?
Answer: binds

Question: Does B1 bind?
Answer: binds

Question: Does B2 bind?
Answer: binds

Biological target: T2, human VLA-1 α1 subunit (CD49a), …
Assay: FACS on CHO-α1 cells

Question: Does B8 bind?
Answer: binds
